For experiment [1], the target named is T1, KDM7B PHD-finger (UniProt Q9UPP1-2 1-447). The experiment can be described thus: NMR titration; 1H-15N HSQC and 1H-NMR of isotopically labelled KDM7B PHD-finger, apo or with peptide. As to conditions: both partners purified.
Experiment [2] concerns the target T1, KDM7B PHD-finger. The experiment can be described thus: BLI; association and dissociation of the cyclic peptide (2-fold serial dilution) on the protein; curve fittings with a 1:1 binding model. Particulars: both partners purified. (In general: BLI is a label-free optical method that tracks binding on a fibre tip over time.)
For experiment [3], the target named is T1, KDM7B PHD-finger. As to the kind of experiment: BLI + AlphaScreen or HTRF; SAR of OC9 variants on KDM7B PHD-finger by affinity (BLI) and displacement (AS) assays; the sentence does not tell which gave the result. Particulars: both partners purified.
Experiment [4] has as its target T1, KDM7B PHD-finger. As to the kind of experiment: AlphaScreen or HTRF; proximity assay of His-tagged protein and biotinylated H3(1-21)K4me3; displacement by titrated unlabelled peptide. As to conditions: both partners purified. Background: Alpha assays give light when donor and acceptor beads are brought close together.
Experiment [5] deals with T2, KDM7B (PHF8, JHDM1F) dual domain (PHD-JmjC) (UniProt Q9UPP1-2 1-447).
T2 construct: KDM7B (PHF8, JHDM1F), PHD-finger in tandem with the JmjC demethylase domain; methods are not in the main text; also called KDM7B dual domain
The experiment can be described thus: ITC; binding curves fitted with a 1:1 binding model. Particulars: both partners purified. On the technique in general: In ITC the heat of successive injections is recorded.

For experiment [6], the target named is T1, KDM7B PHD-finger. Described as above. As to conditions: both partners purified.
Experiment [7] deals with T2, KDM7B (PHF8, JHDM1F) dual domain …. The experiment can be described thus: BLI; association and dissociation of the cyclic peptide (2-fold serial dilution) on the protein; curve fittings with a 1:1 binding model. Particulars: both partners purified.
For experiment [8] the target is unchanged. The experiment can be described thus: cell-based or functional assay.

We go through 4 molecules from PMC10321576, “Cyclic peptides target the aromatic cage of a PHD-finger reader domain to modulate epigenetic protein function†” (Chemical Science, 2023).

Bridge positions count the residues as written; N and C are the ends. Square brackets hold non-standard residues; d marks the D form. Ends that are not written are not given here. Lys(Me3) = C[N+](C)(C)CCCC[C@H](N)C(=O)O Some results are limits rather than exact numbers.

T2 sequence (Q9UPP1 37-483): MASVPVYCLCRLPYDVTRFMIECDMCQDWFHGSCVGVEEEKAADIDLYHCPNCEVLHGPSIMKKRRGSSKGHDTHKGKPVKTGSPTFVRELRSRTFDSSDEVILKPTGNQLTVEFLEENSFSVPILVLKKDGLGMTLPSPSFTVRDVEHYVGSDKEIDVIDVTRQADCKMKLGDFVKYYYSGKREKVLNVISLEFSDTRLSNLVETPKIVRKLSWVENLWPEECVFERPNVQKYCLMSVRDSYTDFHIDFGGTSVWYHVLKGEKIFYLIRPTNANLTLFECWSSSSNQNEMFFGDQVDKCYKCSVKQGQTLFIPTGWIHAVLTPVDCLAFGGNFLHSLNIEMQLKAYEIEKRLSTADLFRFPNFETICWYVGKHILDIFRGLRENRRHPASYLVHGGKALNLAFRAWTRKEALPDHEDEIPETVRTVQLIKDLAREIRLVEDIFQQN
T1 sequence (Q9UPP1 37-483): as above

Turning to YYLTHPYPS[dV]FRTC (ends and bridges not checked) [OC9 V10DV], the Kd with KDM7B PHD-finger [1] was 503 ± 1 µM; with KDM7B PHD-finger [2], greater than 10000 nM.

In the case of YYLTH[trans‑4‑fluoroproline]YPSVFRTC (ends and bridges not checked) [OC9 with trans-4-fluoroproline at P6], the “fold higher affinity against the cis-fluoro variant at P6” value in the experiment with KDM7B PHD-finger [3] was greater than 10 fold.

YYLTHPYPS[Lys(Me3)]FRTC (ends and bridges not checked) [OC9 V10Kme3] came in with an IC50 with KDM7B PHD-finger [4] of 316 nM. The molecule also came in with a Kd in the experiment with KDM7B PHD-finger [2] of 533 nM.

{CH2CO}-YYLTHPYPSVFRTC (thioether N-14) [OC9, de novo cyclic peptide from mRNA display]: the Kd turned out to be 11 nM in experiment [5], 12 nM with KDM7B PHD-finger [6], 6 nM in experiment [7] and 4 nM with KDM7B PHD-finger [2]. In the experiment with KDM7B PHD-finger [4], this molecule had an IC50 of 32 nM. The entries for the “dissociative half-life t1/2” value (in experiment [7]; with KDM7B PHD-finger [2]) were 2.8 min and 8.1 min, respectively. Moreover, the “IC50 of inhibition of KDM7B demethylation of H3(1–21)K4me3K9me2, MALDI-TOF MS based assay” value in experiment [8] came to 1.19 µM. The “IC50 of inhibition of KDM7B demethylation of H3(1–21)K9me2, MALDI-TOF MS based assay” value in experiment [8] came out at 0.51 µM.

The term Kd denotes the equilibrium constant for the complex coming apart. A higher Kd goes with weaker binding. In general, IC50 refers to the concentration needed to halve the response being measured.
